Targets include RPB1 (human (endogenous in HeLa), UniProt P24928 1-1970); TBP (human, UniProt P20226 1-339); RPB2 (human (endogenous in HeLa), UniProt P30876 1-1174).
Holding throughout (assay): cryo-EM structure

Sequence of TBP (P20226 whole entry): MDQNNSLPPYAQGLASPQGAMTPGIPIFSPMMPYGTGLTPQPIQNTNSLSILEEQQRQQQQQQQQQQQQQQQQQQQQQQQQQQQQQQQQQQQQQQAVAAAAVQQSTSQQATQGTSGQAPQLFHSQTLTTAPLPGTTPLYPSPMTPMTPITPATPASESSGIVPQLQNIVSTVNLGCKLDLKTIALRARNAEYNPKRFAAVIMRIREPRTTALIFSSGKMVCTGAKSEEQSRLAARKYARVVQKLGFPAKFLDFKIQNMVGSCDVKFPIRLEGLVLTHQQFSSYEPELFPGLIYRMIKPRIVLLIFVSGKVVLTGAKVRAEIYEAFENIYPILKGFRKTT

B1: TFIIEα (natural protein)
chain: MADPDVLTEVPAALKRLAKYVIRGFYGIEHALALDILIRNSCVKEEDMLELLKFDRKQLRSVLNNLKGDKFIKCRMRVETAADGKTTRHNYYFINYRTLVNVVKYKLDHMRRRIETDERDSTNRASFKCPVCSSTFTDLEANQLFDPMTGTFRCTFCHTEVEEDESAMPKKDARTLLARFNEQIEPIYALLRETEDVNLAYEILEPEPTEIPALKQSKDHAATTAGAASLAGGHHREAWATKGPSYEDLYTQNVVINMDDQEDLHRASLEGKSAKERPIWLRESTVQGAYGSEDMKEGGIDMDAFQEREEGHAGPDDNEEVMRALLIHEKKTSSAMAGSVGAAAPVTAANGSDSESETSESDDDSPPRPAAVAVHKREEDEEEDDEFEEVADDPIVMVAGRPFSYSEVSQRPELVAQMTPEEKEAYIAMGQRMFEDLFE
Take B1: in the assay with RPB1, the binding result is on record as “binds”.

B2: RAP30 (natural protein, human)
chain: MAERGELDLTGAKQNTGVWLVKVPKYLSQQWAKASGRGEVGKLRIAKTQGRTEVSFTLNEDLANIHDIGGKPASVSAPREHPFVLQSVGGQTLTVFTESSSDKLSLEGIVVQRAECRPAASENYMRLKRLQIEESSKPVRLSQQLDKVVTTNYKPVANHQYNIEYERKKKEDGKRARADKQHVLDMLFSAFEKHQYYNLKDLVDITKQPVVYLKEILKEIGVQNVKGIHKNTWELKPEYRHYQGEEKSD
Regarding B2, the binding result with TBP and with RPB2 was “binds” each time.

The record behind these values is paper PMC4940141 (Nature, 2016).
